According to patent US11306156:
One block for each substance: values may come before it.

Assays:
[1] = molecular target: D3H44 Fab heavy chain L124R_S186R, C-terminal ABD2-His6 tag; assay: LCCA (co-expression, SPR read-out of light chain tags), L1:L2 DNA 1:3 normalised to 1:1; competitor m10
[2] = molecular target: D3H44 Fab heavy chain L124E_L143E_K145T, C-terminal ABD2-His6 tag; assay: as above
[3] = molecular target: D3H44 Fab heavy chain L124E_L143E_K145M, C-terminal ABD2-His6 tag; assay: LCCA co-expression, SPR tag read-out; DNA 1:3 norm. to 1:1; competing light chain m8
[4] = molecular target: D3H44 Fab heavy chain L124R_S186K, C-terminal ABD2-His6 tag; assay: as above
[5] = molecular target: D3H44 Fab heavy chain L124E_L143E_K145T, C-terminal ABD2-His6 tag; assay: as above
[6] = molecular target: D3H44 Fab heavy chain L124E_L143D_K145T, C-terminal ABD2-His6 tag; assay: LCCA set 9217 (co-expression; SPR read-out of light-chain tags; L1:L2 DNA 1:3, normalized to 1:1); competing light chain m10
[7] = molecular target: D3H44 Fab heavy chain L124R_S186R, C-terminal ABD2-His6 tag; assay: LCCA set 9526 (co-expression; SPR read-out of light-chain tags; L1:L2 DNA 1:3, normalized to 1:1); competing light chain m11
[8] = molecular target: D3H44 Fab heavy chain L124R_S186K, C-terminal ABD2-His6 tag; assay: LCCA set 9473 (co-expression; SPR read-out of light-chain tags; L1:L2 DNA 1:3, normalized to 1:1); competing light chain m10
[9] = molecular target: D3H44 Fab heavy chain L124E_L143D_K145M, C-terminal ABD2-His6 tag; assay: LCCA set 9199 (co-expression; SPR read-out of light-chain tags; L1:L2 DNA 1:3, normalized to 1:1); competing light chain m13
[10] = molecular target: D3H44 Fab heavy chain L124E_L143E_K145M, C-terminal ABD2-His6 tag; assay: LCCA set 9253 (co-expression; SPR read-out of light-chain tags; L1:L2 DNA 1:3, normalized to 1:1); competing light chain m11
[11] = molecular target: D3H44 Fab heavy chain L124E_L143D_K145T, C-terminal ABD2-His6 tag; assay: LCCA (co-expression, SPR read-out of light chain tags), L1:L2 DNA 1:3 normalised to 1:1; competitor m11
[12] = molecular target: D3H44 Fab heavy chain L124R_S186K, C-terminal ABD2-His6 tag; assay: as above
[13] = molecular target: D3H44 Fab heavy chain L124R_S186K, C-terminal ABD2-His6 tag; assay: LCCA set 9484 (co-expression; SPR read-out of light-chain tags; L1:L2 DNA 1:3, normalized to 1:1); competing light chain m13
[14] = molecular target: D3H44 Fab heavy chain L124R_D146N_Q179K, C-terminal ABD2-His6 tag; assay: LCCA set 9350 (co-expression; SPR read-out of light-chain tags; L1:L2 DNA 1:3, normalized to 1:1); competing light chain m17
[15] = molecular target: D3H44 Fab heavy chain L124R_Q179K, C-terminal ABD2-His6 tag; assay: LCCA (co-expression, SPR read-out of light chain tags), L1:L2 DNA 1:3 normalised to 1:1; competitor m13
[16] = molecular target: D3H44 Fab heavy chain L124E_L143D_K145M, C-terminal ABD2-His6 tag; assay: as above
[17] = molecular target: D3H44 Fab heavy chain L124E_L143E_K145T, C-terminal ABD2-His6 tag; assay: LCCA set 9271 (co-expression; SPR read-out of light-chain tags; L1:L2 DNA 1:3, normalized to 1:1); competing light chain m17
[18] = molecular target: D3H44 Fab heavy chain L124R_Q179K, C-terminal ABD2-His6 tag; assay: LCCA co-expression, SPR tag read-out; DNA 1:3 norm. to 1:1; competing light chain m11
[19] = molecular target: D3H44 Fab heavy chain L124E_L143D_K145T, C-terminal ABD2-His6 tag; assay: as above
[20] = molecular target: D3H44 Fab heavy chain L124E_L143E_K145M, C-terminal ABD2-His6 tag; assay: as above
[21] = molecular target: D3H44 Fab heavy chain L124E_L143E_K145T, C-terminal ABD2-His6 tag; assay: as above
[22] = molecular target: D3H44 Fab heavy chain L124R_Q179K, C-terminal ABD2-His6 tag; assay: LCCA co-expression, SPR tag read-out; DNA 1:3 norm. to 1:1; competing light chain m12
[23] = molecular target: D3H44 Fab heavy chain L124E_L143E_K145M, C-terminal ABD2-His6 tag; assay: as above
[24] = molecular target: D3H44 Fab heavy chain L124E_L143E_K145T, C-terminal ABD2-His6 tag; assay: as above
[25] = molecular target: D3H44 Fab heavy chain L124R_Q179K, C-terminal ABD2-His6 tag; assay: LCCA co-expression, SPR tag read-out; DNA 1:3 norm. to 1:1; competing light chain m14
[26] = molecular target: D3H44 Fab heavy chain L124E_L143E_K145T, C-terminal ABD2-His6 tag; assay: as above
[27] = molecular target: D3H44 Fab heavy chain L124R_Q179K, C-terminal ABD2-His6 tag; assay: LCCA (co-expression, SPR read-out of light chain tags), L1:L2 DNA 1:3 normalised to 1:1; competitor m14
[28] = molecular target: D3H44 Fab heavy chain L124E_L143D_K145T, C-terminal ABD2-His6 tag; assay: as above
[29] = molecular target: D3H44 Fab heavy chain L124E_L143D_K145M, C-terminal ABD2-His6 tag; assay: as above
[30] = molecular target: D3H44 Fab heavy chain L124R_S186K, C-terminal ABD2-His6 tag; assay: LCCA set 9451 (co-expression; SPR read-out of light-chain tags; L1:L2 DNA 1:3, normalized to 1:1); competing light chain m10
[31] = molecular target: D3H44 Fab heavy chain L124E_L143D_K145M, C-terminal ABD2-His6 tag; assay: LCCA set 9176 (co-expression; SPR read-out of light-chain tags; L1:L2 DNA 1:3, normalized to 1:1); competing light chain m10
[32] = molecular target: D3H44 Fab heavy chain L124E_L143E_K145M, C-terminal ABD2-His6 tag; assay: LCCA (co-expression, SPR read-out of light chain tags), L1:L2 DNA 1:3 normalised to 1:1; competitor m10
[33] = molecular target: D3H44 Fab heavy chain L124R_S186K, C-terminal ABD2-His6 tag; assay: as above
[34] = molecular target: D3H44 Fab heavy chain L124R_S186R, C-terminal ABD2-His6 tag; assay: LCCA co-expression, SPR tag read-out; DNA 1:3 norm. to 1:1; competing light chain m8
[35] = molecular target: D3H44 Fab heavy chain L124E_L143D_K145M, C-terminal ABD2-His6 tag; assay: LCCA set 9196 (co-expression; SPR read-out of light-chain tags; L1:L2 DNA 1:3, normalized to 1:1); competing light chain m13
[36] = molecular target: D3H44 Fab heavy chain L124E_L143D_K145T, C-terminal ABD2-His6 tag; assay: LCCA set 9214 (co-expression; SPR read-out of light-chain tags; L1:L2 DNA 1:3, normalized to 1:1); competing light chain m10
[37] = molecular target: D3H44 Fab heavy chain L124E_L143E_K145M, C-terminal ABD2-His6 tag; assay: LCCA set 9257 (co-expression; SPR read-out of light-chain tags; L1:L2 DNA 1:3, normalized to 1:1); competing light chain m10
[38] = molecular target: D3H44 Fab heavy chain L124R_S186R, C-terminal ABD2-His6 tag; assay: LCCA set 9505 (co-expression; SPR read-out of light-chain tags; L1:L2 DNA 1:3, normalized to 1:1); competing light chain m10
[39] = molecular target: D3H44 Fab heavy chain L124R_S186R, C-terminal ABD2-His6 tag; assay: LCCA (co-expression, SPR read-out of light chain tags), L1:L2 DNA 1:3 normalised to 1:1; competitor m11
[40] = molecular target: D3H44 Fab heavy chain L124E_L143D_K145M, C-terminal ABD2-His6 tag; assay: as above
[41] = molecular target: D3H44 Fab heavy chain L124R_S186K, C-terminal ABD2-His6 tag; assay: LCCA set 9461 (co-expression; SPR read-out of light-chain tags; L1:L2 DNA 1:3, normalized to 1:1); competing light chain m13

H2L2:H2L1 normalized median ratio [1]: 80%
H1L1:H1L2 normalized median ratio [2]: 4%
H1L1:H1L2 normalized median ratio (% (ratio normalized to 100)) [3]: 5
H2L2:H2L1 normalized median ratio (% (ratio normalized to 100)) [4]: 90
H1L1:H1L2 normalized median ratio (% (ratio normalized to 100)) [5]: 4
H1L1:H1L2 normalized median ratio (H1L2 part) [6]: 18%
H2L2:H2L1 normalized median ratio (H2L2 part) [7]: 80%
H2L2:H2L1 normalized median ratio (H2L2 part) [8]: 93%
H1L1:H1L2 normalized median ratio (H1L2 part) [9]: 13%
H1L1:H1L2 normalized median ratio (H1L2 part) [10]: 5%
H1L1:H1L2 normalized median ratio [11]: 11%
H2L2:H2L1 normalized median ratio [12]: 92%
H2L2:H2L1 normalized median ratio (H2L2 part) [13]: 92%
Substance: D3H44 light chain V133G_S176D_T178D_T180E, N-terminal HA or FLAG tag

H2L2:H2L1 normalized median ratio (H2L1 part) [14]: 18%
H2L2:H2L1 normalized median ratio [15]: 8%
H1L1:H1L2 normalized median ratio [16]: 91%
H1L1:H1L2 normalized median scalar value ln(r1/f1) [16]: 2.36
H1L1:H1L2 normalized median ratio (H1L1 part) [17]: 95%
H1L1:H1L2 normalized median scalar value ln(r1/f1) [17]: 2.92
H2L2:H2L1 normalized median ratio (% (ratio normalized to 100)) [18]: 8
H1L1:H1L2 normalized median ratio (% (ratio normalized to 100)) [19]: 94
H1L1:H1L2 normalized median scalar value ln(r1/f1) [19]: 2.69
H1L1:H1L2 normalized median ratio (% (ratio normalized to 100)) [20]: 94
H1L1:H1L2 normalized median scalar value ln(r1/f1) [20]: 2.72
H1L1:H1L2 normalized median ratio (% (ratio normalized to 100)) [21]: 95
H1L1:H1L2 normalized median scalar value ln(r1/f1) [21]: 3
H2L2:H2L1 normalized median ratio (% (ratio normalized to 100)) [22]: 8
H1L1:H1L2 normalized median ratio (% (ratio normalized to 100)) [23]: 92
H1L1:H1L2 normalized median ratio (% (ratio normalized to 100)) [24]: 95
H1L1:H1L2 normalized median scalar value ln(r1/f1) [24]: 2.92
H2L2:H2L1 normalized median ratio (% (ratio normalized to 100)) [25]: 10
H1L1:H1L2 normalized median ratio (% (ratio normalized to 100)) [26]: 94
H2L2:H2L1 normalized median ratio [27]: 8%
H1L1:H1L2 normalized median ratio [28]: 92%
H1L1:H1L2 normalized median ratio [29]: 92%
Substance: D3H44 light chain Q124K_V133G_Q160K_S176R, N-terminal HA or FLAG tag

H2L2:H2L1 normalized median ratio (H2L2 part) [30]: 93%
H1L1:H1L2 normalized median ratio (H1L2 part) [31]: 17%
H1L1:H1L2 normalized median ratio [32]: 5%
H2L2:H2L1 normalized median ratio [33]: 82%
H1L1:H1L2 normalized median ratio [2]: 4%
H2L2:H2L1 normalized median ratio (% (ratio normalized to 100)) [34]: 88
H1L1:H1L2 normalized median ratio (% (ratio normalized to 100)) [3]: 5
H1L1:H1L2 normalized median ratio (% (ratio normalized to 100)) [5]: 4
H1L1:H1L2 normalized median ratio (H1L2 part) [35]: 12%
H1L1:H1L2 normalized median ratio (H1L2 part) [36]: 15%
H1L1:H1L2 normalized median ratio (H1L2 part) [37]: 16%
H2L2:H2L1 normalized median ratio (H2L2 part) [38]: 94%
H2L2:H2L1 normalized median ratio [39]: 94%
H1L1:H1L2 normalized median ratio [11]: 14%
H1L1:H1L2 normalized median ratio [40]: 12%
H2L2:H2L1 normalized median ratio (H2L2 part) [41]: 89%
Substance: D3H44 light chain Q124E_V133G_S176D_T178D_T180E, N-terminal HA or FLAG tag
